The results in this text go back to article PMC2172161 (The Journal of Cell Biology, 2004).

B1: Cdc12-His6 (natural protein)
chain: MSAATATAAPVPPPVGISNLPNQRYKIVNEEGGTFTVMLCGESGLGKTTFINTLFQTVLKRADGQQHRQEPIRKTVEIDITRALLEEKHFELRVNVIDTPGFGDNVNNNKAWQPLVDFIDDQHDSYMRQEQQPYRTKKFDLRVHAVLYFIRPTGHGLKPIDIETMKRLSTRANLIPVIAKADTLTAQELQQFKSRIRQVIEAQEIRIFTPPLDADSKEDAKSGSNPDSAAVEHARQLIEAMPFAIVGSEKKFDNGQGTQVVARKYPWGLVEIENDSHCDFRKLRALLLRTYLLDLISTTQEMHYETYRRLRLEGHENTGEGNEDFTLPAIAPARKLSHNPRYKEEENALKKYFTDQVKAEEQRFRQWEQNIVNERIRLNGDLEEIQGKVKKLEEQVKSLQVKKSHLK
B2: GST-Cdc10 (natural protein)
chain: MDPLSSVQPASYVGFDTITNQIEHRLLKKGFQFNIMVVGQSGLGKSTLINTLFASHLIDSATGDDISALPVTKTTEMKISTHTLVEDRVRLNINVIDTPGFGDFIDNSKAWEPIVKYIKEQHSQYLRKELTAQRERFITDTRVHAILYFLQPNGKELSRLDVEALKRLTEIANVIPVIGKSDTLTLDERTEFRELIQNEFEKYNFKIYPYDSEELTDEELELNRSVRSIIPFAVVGSENEIEINGETFRGRKTRWSAINVEDINQCDFVYLREFLIRTHLQDLIETTSYIHYEGFRARQLIALKENANSRSSAHMSSNAIQR
B3: Cdc12(T48N)-His6 (natural protein)
chain: B1 chain with T48N

The target of experiment [1] is T1, Cdc12-His6 (Saccharomyces cerevisiae, UniProt P32468).
T1 sequence (P32468 1-407): B1 chain
Nature of the experiment: GTPase, phosphate release from γ[…]GTP. The format is biochemical. The following applies: labelled compound.

The target of experiment [2] is T2, Cdc10 (Saccharomyces cerevisiae, UniProt P25342).
T2 sequence (P25342 1-322): B2 chain
In words: GTPase, phosphate release from γ[…]GTP. It is filed as biochemical. The conditions noted are these: labelled compound.

Experiment [3] concerns the target His6Cdc12–Cdc3–Cdc10–Cdc11 complex (Saccharomyces cerevisiae, UniProt P25342+P32468). In words: binding of α[…]GTP to complex on Ni2+-NTA beads. The conditions noted are these: labelled compound.
In experiment [4] the target is T1, Cdc12-His6. In words: filter binding of radiolabelled GTPγS. The following applies: labelled compound.
In experiment [5] the target is T3, Cdc12ΔC-His6 (Cdc12(Δ339–407)-His6) (Saccharomyces cerevisiae, UniProt P32468).
T3 sequence (P32468 1-338): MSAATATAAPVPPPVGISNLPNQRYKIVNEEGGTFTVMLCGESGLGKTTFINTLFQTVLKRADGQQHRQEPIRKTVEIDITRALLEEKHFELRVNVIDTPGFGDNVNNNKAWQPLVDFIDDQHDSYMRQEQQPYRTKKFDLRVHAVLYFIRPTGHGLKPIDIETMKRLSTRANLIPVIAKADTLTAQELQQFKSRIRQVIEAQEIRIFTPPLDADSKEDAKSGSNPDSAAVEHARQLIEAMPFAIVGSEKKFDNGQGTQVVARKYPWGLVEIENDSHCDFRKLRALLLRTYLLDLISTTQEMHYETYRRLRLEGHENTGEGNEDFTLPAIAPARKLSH
Nature of the experiment: filter binding of radiolabelled GTPγS. The following applies: labelled compound.

Experiment [6] deals with T4, GST-HSL1(833-1518) (S. cerevisiae, UniProt P34244 833-1518).
T4 sequence: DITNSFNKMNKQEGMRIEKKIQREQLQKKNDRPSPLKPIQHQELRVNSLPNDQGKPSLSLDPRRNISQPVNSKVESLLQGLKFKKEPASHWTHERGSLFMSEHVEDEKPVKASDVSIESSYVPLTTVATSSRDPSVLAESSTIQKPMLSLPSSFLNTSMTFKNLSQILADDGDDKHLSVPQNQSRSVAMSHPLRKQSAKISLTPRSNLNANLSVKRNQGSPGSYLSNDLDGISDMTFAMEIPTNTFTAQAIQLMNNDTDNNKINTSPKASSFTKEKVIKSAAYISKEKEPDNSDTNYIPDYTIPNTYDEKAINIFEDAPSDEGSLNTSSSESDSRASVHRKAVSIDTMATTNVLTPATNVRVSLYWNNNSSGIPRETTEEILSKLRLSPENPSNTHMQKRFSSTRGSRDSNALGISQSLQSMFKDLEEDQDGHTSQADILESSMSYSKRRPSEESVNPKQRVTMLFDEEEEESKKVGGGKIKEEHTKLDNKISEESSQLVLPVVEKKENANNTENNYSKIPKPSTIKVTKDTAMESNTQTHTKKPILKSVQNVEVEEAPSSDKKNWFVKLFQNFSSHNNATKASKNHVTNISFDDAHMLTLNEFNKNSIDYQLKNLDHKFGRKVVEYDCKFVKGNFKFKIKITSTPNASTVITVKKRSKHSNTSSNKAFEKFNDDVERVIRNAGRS
Nature of the experiment: pull-down.

Experiment [7] addresses T5, GST-Cdc12 (S. cerevisiae, UniProt P32468 1-407).
T5 sequence: B1 chain
In words: pull-down.

Experiment [8] has as its target T6, GST-Cdc11 (S. cerevisiae, UniProt P32458 1-415).
T6 sequence: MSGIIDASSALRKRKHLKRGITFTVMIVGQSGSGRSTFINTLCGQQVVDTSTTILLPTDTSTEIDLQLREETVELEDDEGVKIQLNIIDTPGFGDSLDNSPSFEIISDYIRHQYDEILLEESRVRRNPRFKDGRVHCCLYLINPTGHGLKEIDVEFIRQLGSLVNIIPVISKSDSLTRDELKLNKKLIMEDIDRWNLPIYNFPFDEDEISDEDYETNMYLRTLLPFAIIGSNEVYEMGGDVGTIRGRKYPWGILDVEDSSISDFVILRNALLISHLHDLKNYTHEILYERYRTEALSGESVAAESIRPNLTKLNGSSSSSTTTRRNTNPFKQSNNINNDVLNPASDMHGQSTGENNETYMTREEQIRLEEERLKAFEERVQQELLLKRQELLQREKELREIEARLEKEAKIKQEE
In words: pull-down.

The target in experiment [9] is T7, GST-Cdc3 (S. cerevisiae, UniProt P32457 1-520).
T7 sequence: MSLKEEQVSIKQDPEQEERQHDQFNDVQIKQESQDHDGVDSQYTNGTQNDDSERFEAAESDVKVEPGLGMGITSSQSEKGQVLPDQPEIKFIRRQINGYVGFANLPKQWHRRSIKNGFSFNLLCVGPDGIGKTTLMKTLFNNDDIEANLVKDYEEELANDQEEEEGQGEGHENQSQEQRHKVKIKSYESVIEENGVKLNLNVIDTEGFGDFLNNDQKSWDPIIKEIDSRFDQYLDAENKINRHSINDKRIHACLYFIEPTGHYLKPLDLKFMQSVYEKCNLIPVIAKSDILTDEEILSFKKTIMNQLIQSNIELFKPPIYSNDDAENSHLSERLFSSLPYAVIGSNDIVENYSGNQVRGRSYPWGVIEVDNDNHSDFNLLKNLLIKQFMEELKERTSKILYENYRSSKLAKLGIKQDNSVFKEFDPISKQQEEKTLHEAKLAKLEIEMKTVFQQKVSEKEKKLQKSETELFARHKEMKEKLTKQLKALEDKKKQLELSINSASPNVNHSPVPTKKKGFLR
In words: pull-down.

For experiment [10], the target named is B3. In words: pull-down.
Experiment [11] has as its target B1. Nature of the experiment: pull-down.
In experiment [12] the target is T6, GST-Cdc11. Nature of the experiment: pull-down. The source holds these as a separate data set.
In experiment [13] the target is T7, GST-Cdc3. Nature of the experiment: pull-down. The source holds these as a separate data set.

Substitutions are numbered along the chain they refer to. Numbers in names are those of the source. Read-outs that look alike come from different tables or passages of the source.

For the molecule `Nc1nc2c(ncn2[C@@H]2O[C@H](COP(=O)(O)OP(=O)(O)OP(=O)(O)O)[C@@H](O)[C@H]2O)c(=O)[nH]1` [GTP], the “GTPase, phosphate release from γ[32P]GTP” value in experiment [1] is “Only Cdc10 and Cdc12 displayed detectable GTPase activity above the background control”; in [2], “Only Cdc10 and Cdc12 displayed detectable GTPase activity above the background control”. For the same molecule, the “binding of α[32P]GTP to complex on Ni2+-NTA beads” value in experiment [3] is on record as “GTP binding to the His6Cdc12–Cdc3–Cdc10–Cdc11 complex”.
Turning to `Nc1nc2c(ncn2[C@@H]2O[C@H](COP(=O)(O)OP(=O)(O)OP(O)(O)=S)[C@@H](O)[C@H]2O)c(=O)[nH]1` [GTPγS], the “filter binding of radiolabelled GTPγS” value in experiment [4] was “Both full-length Cdc12 and Cdc12ΔC formed stable complexes with GTPγS over time”; in [5], “Both full-length Cdc12 and Cdc12ΔC formed stable complexes with GTPγS over time”.
Take B1: the binding result in [6], in experiment [7], in experiment [8] and in [9] was “binds” each time.
In the case of B2, the binding result in [10] and in [11] was “binds” in each case.
With B3, the binding result in experiment [6], in experiment [12], in [13] and in experiment [7] was “binds” throughout.
